In patent US20190111115A1 one finds Kd data, which are given here for 1 substance.

Among the targets are Human FcR1 (human) (UniProt P12314); Human FcRIIA[H] (human) (UniProt P12318); Human FcRIIA[R]; Human FcRIIB; Human FcRIII (human); Human FcRn; Mouse FcRIIB; Mouse FcRIV; Mouse FcRI.
Holding throughout (test): ELISA
A general note: In an ELISA, binding on a coated surface is turned into a signal by an enzyme label.

pKd: −log10 of the molar value.

Mouse FcRIV, sequence (A0A0B4J1G0 21-203): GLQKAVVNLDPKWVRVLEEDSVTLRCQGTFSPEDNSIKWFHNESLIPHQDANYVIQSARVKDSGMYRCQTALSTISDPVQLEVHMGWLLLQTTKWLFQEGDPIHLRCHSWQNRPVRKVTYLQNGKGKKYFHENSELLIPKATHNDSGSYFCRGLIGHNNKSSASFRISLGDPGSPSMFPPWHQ
Human FcRIIA[H] (human), sequence (P12318 34-217): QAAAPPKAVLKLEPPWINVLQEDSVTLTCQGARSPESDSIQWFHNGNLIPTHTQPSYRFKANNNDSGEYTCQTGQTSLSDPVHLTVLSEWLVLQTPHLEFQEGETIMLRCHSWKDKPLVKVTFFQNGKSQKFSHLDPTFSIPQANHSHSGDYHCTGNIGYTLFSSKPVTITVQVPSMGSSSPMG
Human FcRIII (human), sequence (P08637 17-208): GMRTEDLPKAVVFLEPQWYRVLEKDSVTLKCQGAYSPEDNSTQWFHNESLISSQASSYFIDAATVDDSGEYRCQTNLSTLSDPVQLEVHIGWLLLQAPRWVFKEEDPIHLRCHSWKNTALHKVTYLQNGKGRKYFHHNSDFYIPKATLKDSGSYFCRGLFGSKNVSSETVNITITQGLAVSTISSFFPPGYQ
Human FcR1 (human), sequence (P12314 16-292): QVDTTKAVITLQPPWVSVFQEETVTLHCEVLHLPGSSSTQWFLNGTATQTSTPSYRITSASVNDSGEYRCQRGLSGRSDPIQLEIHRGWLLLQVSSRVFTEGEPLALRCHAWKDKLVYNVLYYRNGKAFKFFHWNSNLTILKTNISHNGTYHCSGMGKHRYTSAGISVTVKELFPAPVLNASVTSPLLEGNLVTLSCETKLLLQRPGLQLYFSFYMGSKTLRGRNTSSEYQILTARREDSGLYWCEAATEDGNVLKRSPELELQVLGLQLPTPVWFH

For IgG1, the pKd was 9.79 with Human FcR1 (human); 6.48 in the assay with Human FcRIIA[H] (human); 6.70 in the assay with Human FcRIIA[R]; 6.06 with Human FcRIIB; 5.93 with Human FcRIII (human); 7.85 with Human FcRn. For the same substance, the pKd with Mouse FcRIIB is 6.43; with Mouse FcRIV, 8.19; in the assay with Mouse FcRI, 8.88.

In general, pKd refers to the Kd on a negative log10 scale, so that one unit is a factor of ten. Low values mean a high Kd, high ones a low Kd.
